Measurements from US20150165065A1 (AVIDBIOTICS, published 2015).

How the values were obtained:
integrin αVβ3 [1] = molecular target: T1, integrin αVβ3 (UniProt P06756 31-992; P05106 27-718); assay: phage ELISA, coated integrin, anti-M13-HRP
T1 construct: Coated on the ELISA plate
Method: (§1) The phage vectors were independently transformed into NEBαF′tet competent E. coli cells. Phages produced by the transformed cells were tittered and their concentrations adjusted by dilution to 10¹³ per ml. The ability of the soluble MICA molecules in each of the phage preparations was assayed by an ELISA using the intended target proteins, integrin αVβ3 or αVβ5, as capture agents on the ELISA plate. After the respective integrins were adhered to the bottoms of the wells of the ELISA plate, the wells were washed and blocked, as well known in the field. Each sample (100 μl) of phage preparation was added to wells containing αVβ3 or αVβ5, incubated and washed. The phages captured by the integrins were detected by HRP-conjugated antibody to the M13 phage coat developed with Ultra TMB-ELISA substrate and the optical densities read.

integrin αVβ5 [2] = molecular target: T2, integrin αVβ5 (UniProt P06756 31-992; P18084 24-719); assay: phage ELISA, coated integrin, anti-M13-HRP
T2 construct: Coated on the ELISA plate
Method: as §1

the targeted integrin = assay: cell-based or functional assay
integrin αVβ3 [3] = molecular target: T1, integrin αVβ3; assay: ELISA, coated integrin, anti-MICA-HRP
Method: (§2) The ability of the soluble MICA molecules in each of the concentrated supernatants to bind target molecules was assayed by an ELISA using the intended target proteins, integrin αVβ3 or αVβ5, as capture agents on the ELISA plate. After the respective integrins were adhered to the bottoms of the wells of the ELISA plate, the wells were washed and blocked, as well known in the field. Each sample (100 μl) of soluble MICA produced and secreted by 293T cells was added to wells containing αVβ3 or αVβ5, incubated and washed. The soluble MICA molecules captured by the integrins were detected by HRP-conjugated antibody to human MICA developed with Ultra TMB-ELISA substrate and the optical densities read. The quantity of soluble MICA in each sample was determined by the MICA-specific ELISA. […] The ELISA signal from a non-binding, negative control MICA (generated by pSW273) was subtracted from each integrin binding signal.

integrin αVβ5 [4] = molecular target: T2, integrin αVβ5; assay: ELISA, coated integrin, anti-MICA-HRP
Method: as §2

T2 sequence (P06756 31-992, chain 1 of 2): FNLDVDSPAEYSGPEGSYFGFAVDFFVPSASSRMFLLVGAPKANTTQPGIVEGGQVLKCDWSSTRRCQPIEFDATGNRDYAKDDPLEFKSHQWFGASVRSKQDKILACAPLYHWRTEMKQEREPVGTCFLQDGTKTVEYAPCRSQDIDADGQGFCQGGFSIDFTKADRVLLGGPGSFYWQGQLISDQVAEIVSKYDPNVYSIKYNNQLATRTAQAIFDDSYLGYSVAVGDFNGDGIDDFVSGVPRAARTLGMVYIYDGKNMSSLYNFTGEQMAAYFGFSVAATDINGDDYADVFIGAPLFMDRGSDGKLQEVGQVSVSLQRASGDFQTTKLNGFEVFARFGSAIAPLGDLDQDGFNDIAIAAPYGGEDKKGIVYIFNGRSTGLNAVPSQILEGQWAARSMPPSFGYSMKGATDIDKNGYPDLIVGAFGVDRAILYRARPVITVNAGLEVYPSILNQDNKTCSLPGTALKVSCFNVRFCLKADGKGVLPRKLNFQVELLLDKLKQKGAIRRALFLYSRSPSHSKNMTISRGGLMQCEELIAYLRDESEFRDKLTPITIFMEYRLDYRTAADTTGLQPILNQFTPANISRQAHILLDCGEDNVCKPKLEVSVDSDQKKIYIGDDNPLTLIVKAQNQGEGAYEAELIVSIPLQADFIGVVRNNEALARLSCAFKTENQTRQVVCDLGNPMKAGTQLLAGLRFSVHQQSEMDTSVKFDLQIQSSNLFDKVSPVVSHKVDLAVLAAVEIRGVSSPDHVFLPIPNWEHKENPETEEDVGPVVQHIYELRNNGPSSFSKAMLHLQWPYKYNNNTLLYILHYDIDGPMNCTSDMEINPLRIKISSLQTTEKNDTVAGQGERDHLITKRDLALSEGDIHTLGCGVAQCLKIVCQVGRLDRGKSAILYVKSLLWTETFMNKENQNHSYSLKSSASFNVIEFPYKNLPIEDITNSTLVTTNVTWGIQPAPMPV
T2 sequence (P18084 24-719, chain 2 of 2): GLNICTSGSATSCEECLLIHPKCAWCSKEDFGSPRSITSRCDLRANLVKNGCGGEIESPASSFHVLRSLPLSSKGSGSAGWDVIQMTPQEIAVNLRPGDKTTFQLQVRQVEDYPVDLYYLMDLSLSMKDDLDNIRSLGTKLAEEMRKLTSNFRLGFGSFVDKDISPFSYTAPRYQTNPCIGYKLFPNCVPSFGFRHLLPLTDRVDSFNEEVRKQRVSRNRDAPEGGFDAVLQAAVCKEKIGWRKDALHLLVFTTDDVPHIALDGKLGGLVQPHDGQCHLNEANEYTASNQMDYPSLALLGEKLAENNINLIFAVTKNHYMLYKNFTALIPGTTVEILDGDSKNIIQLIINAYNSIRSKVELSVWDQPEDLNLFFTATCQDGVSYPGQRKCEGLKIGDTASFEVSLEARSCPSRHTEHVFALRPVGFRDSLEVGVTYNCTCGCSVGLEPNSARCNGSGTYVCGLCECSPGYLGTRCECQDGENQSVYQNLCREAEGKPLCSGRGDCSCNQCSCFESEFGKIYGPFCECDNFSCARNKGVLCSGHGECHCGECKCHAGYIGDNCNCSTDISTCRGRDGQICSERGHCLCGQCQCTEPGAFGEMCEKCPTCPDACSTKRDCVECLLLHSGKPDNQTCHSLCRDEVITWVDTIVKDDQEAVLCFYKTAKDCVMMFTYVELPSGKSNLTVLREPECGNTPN
T1 sequence (P06756 31-992, chain 1 of 2): as the sequence (P06756 31-992, chain 1 of 2) above
T1 sequence (P05106 27-718, chain 2 of 2): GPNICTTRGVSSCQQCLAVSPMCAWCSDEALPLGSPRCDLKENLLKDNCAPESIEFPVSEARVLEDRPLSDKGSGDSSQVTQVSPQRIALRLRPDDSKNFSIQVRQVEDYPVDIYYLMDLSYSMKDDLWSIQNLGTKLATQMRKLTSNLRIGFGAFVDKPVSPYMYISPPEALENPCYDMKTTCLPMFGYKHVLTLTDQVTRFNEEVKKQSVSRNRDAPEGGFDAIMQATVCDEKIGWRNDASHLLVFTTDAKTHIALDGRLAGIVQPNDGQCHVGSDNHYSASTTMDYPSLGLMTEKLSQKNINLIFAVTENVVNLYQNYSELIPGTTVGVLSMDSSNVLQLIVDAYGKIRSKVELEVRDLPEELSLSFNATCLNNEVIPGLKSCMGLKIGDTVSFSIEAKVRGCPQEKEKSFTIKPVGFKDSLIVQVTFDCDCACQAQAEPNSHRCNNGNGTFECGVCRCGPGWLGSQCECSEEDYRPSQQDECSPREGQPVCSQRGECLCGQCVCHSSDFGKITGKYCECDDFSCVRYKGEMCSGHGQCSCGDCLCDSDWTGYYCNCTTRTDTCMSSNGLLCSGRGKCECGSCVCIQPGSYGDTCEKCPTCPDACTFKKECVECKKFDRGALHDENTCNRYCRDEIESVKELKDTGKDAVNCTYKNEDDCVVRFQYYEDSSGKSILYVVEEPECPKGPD

B1: M13 phage pKK97 displaying MICA α3 domain with loop 1 insert 5.2 (designed binder)
chain: TVPPMVNVTRGDTFTQSVTCRASGFYPWNITLSWRQDGVSLSHDTQQWGDVLPDGNGTYQTWVATRICQGEEQRFTCYMEHSGNHSTHPVPSGK
notes: also called 1-5.2; not shown: C-terminal portion of M13 gene III protein, fused at codon position 198
- αvβ3 signal (integrin αVβ3 [1]): 1.55 OD
- αvβ5 signal (integrin αVβ5 [2]): 2.59 OD

B2: M13 phage pKK107 displaying MICA α3 domain with tight loop 1 insert T-3.1 (designed binder)
chain: TVPPMVNTSRGDHPRTQCRASGFYPWNITLSWRQDGVSLSHDTQQWGDVLPDGNGTYQTWVATRICQGEEQRFTCYMEHSGNHSTHPVPSGK
notes: also called 1-T-3.1; not shown: C-terminal portion of M13 gene III protein, fused at codon position 198
- αvβ3 signal (integrin αVβ3 [1]): 0.999 OD
- αvβ5 signal (integrin αVβ5 [2]): 1.49 OD

B3: M13 phage pKK108 displaying MICA α3 domain with tight loop 1 insert T-3.5 (designed binder)
chain: TVPPMVNGSRGDSLIMHCRASGFYPWNITLSWRQDGVSLSHDTQQWGDVLPDGNGTYQTWVATRICQGEEQRFTCYMEHSGNHSTHPVPSGK
notes: also called 1-T-3.5; not shown: C-terminal portion of M13 gene III protein, fused at codon position 198
- αvβ3 signal (integrin αVβ3 [1]): -0.09 OD
- αvβ5 signal (integrin αVβ5 [2]): -0.204 OD

B4: M13 phage pKK110 displaying MICA α3 domain with tight loop 1 insert T-5.1 (designed binder)
chain: TVPPMVNVTRGDTFTQSCRASGFYPWNITLSWRQDGVSLSHDTQQWGDVLPDGNGTYQTWVATRICQGEEQRFTCYMEHSGNHSTHPVPSGK
notes: also called 1-T-5.1; not shown: C-terminal portion of M13 gene III protein, fused at codon position 198
- αvβ3 signal (integrin αVβ3 [1]): 1.49 OD
- αvβ5 signal (integrin αVβ5 [2]): 2.56 OD

B5: M13 phage pKK111 displaying MICA α3 domain with tight loop 1 insert T-5.3 (designed binder)
chain: TVPPMVNHLARGDDLTYCRASGFYPWNITLSWRQDGVSLSHDTQQWGDVLPDGNGTYQTWVATRICQGEEQRFTCYMEHSGNHSTHPVPSGK
notes: also called 1-T-5.3; not shown: C-terminal portion of M13 gene III protein, fused at codon position 198
- αvβ3 signal (integrin αVβ3 [1]): 0.707 OD
- αvβ5 signal (integrin αVβ5 [2]): 0.657 OD

B6: soluble MICA generated from pKK131 (loop 1 extended 5.1sp, loop 3 extended 5.1spNH) (designed binder)
chain: HHHHHHEPHSLRYNLTVLSWDGSVQSGFLTEVHLDGQPFLRCDRQKCRAKPQGQWAEDVLGNKTWDRETRDLTGNGKDLRMTLAHIKDQKEGLHSLQEIRVCEIHEDNSTRSSQHFYYDGELFLSQNLETEEWTMPQSSRAQTLAMNVRNFLKEDAMKTKTHYHAMHADCLQELRRYLKSGVVLRRTVPPMVNVTSGGSGGGSVTRGDTFTQSSGGSGGGVTCRASGFYPWNITLSWRQDGVSLSHDTQQWGDVLPDGNGTYQTWVATRISGGSGGGSVTRGDTFTQSSGGSGGGCYMEHSGNHSTHPVPSGK
- green fluorescent signal from live MCF cells; 64 pg targeted MICA, NK 5:1 (the targeted integrin): 5180 fluorescence
- green fluorescent signal from live MCF cells; 64 pg targeted MICA, NK 10:1 (the targeted integrin): 3700 fluorescence
- green fluorescent signal from live MCF cells; 64 pg targeted MICA, no NK cells (the targeted integrin): 5030 fluorescence
- green fluorescent signal from live MCF cells; 128 pg targeted MICA, NK 5:1 (the targeted integrin): 3460 fluorescence
- green fluorescent signal from live MCF cells; 128 pg targeted MICA, NK 10:1 (the targeted integrin): 2190 fluorescence
- red fluorescent signal from (dead) MCF cells; 64 pg targeted MICA, NK 5:1 (the targeted integrin): 27 fluorescence
- red fluorescent signal from (dead) MCF cells; 64 pg targeted MICA, NK 10:1 (the targeted integrin): 31 fluorescence
- red fluorescent signal from (dead) MCF cells; 64 pg targeted MICA, no NK cells (the targeted integrin): 19.9 fluorescence
- red fluorescent signal from (dead) MCF cells; 128 pg targeted MICA, NK 5:1 (the targeted integrin): 25.6 fluorescence
- red fluorescent signal from (dead) MCF cells; 128 pg targeted MICA, NK 10:1 (the targeted integrin): 41 fluorescence

B7: M13 phage pKK94 displaying MICA α3 domain with loop 1 insert 3.3 (designed binder)
chain: TVPPMVNVTRVPRGDSDLTVTCRASGFYPWNITLSWRQDGVSLSHDTQQWGDVLPDGNGTYQTWVATRICQGEEQRFTCYMEHSGNHSTHPVPSGK
notes: also called 1-3.3; not shown: C-terminal portion of M13 gene III protein, fused at codon position 198
- αvβ3 signal (integrin αVβ3 [1]): 1.07 OD
- αvβ5 signal (integrin αVβ5 [2]): 2.84 OD

B8: M13 phage pKK96 displaying MICA α3 domain with loop 1 insert 5.1 (designed binder)
chain: TVPPMVNVTVTRGDTFTQSVTCRASGFYPWNITLSWRQDGVSLSHDTQQWGDVLPDGNGTYQTWVATRICQGEEQRFTCYMEHSGNHSTHPVPSGK
notes: also called 1-5.1; not shown: C-terminal portion of M13 gene III protein, fused at codon position 198
- αvβ3 signal (integrin αVβ3 [1]): 1.64 OD
- αvβ5 signal (integrin αVβ5 [2]): 2.42 OD

B9: M13 phage pKK98 displaying MICA α3 domain with loop 1 insert 5.3 (designed binder)
chain: TVPPMVNVTHLARGDDLTYVTCRASGFYPWNITLSWRQDGVSLSHDTQQWGDVLPDGNGTYQTWVATRICQGEEQRFTCYMEHSGNHSTHPVPSGK
notes: also called 1-5.3; not shown: C-terminal portion of M13 gene III protein, fused at codon position 198
- αvβ3 signal (integrin αVβ3 [1]): 1.22 OD
- αvβ5 signal (integrin αVβ5 [2]): 1.48 OD

B10: M13 phage pKK104 displaying MICA α3 domain with loop 3 insert 3.2sp (designed binder)
chain: TVPPMVNVTRSEASEGNITVTCRASGFYPWNITLSWRQDGVSLSHDTQQWGDVLPDGNGTYQTWVATRISGGSGGGSTSRGDHPRTQSGGSGGGCYMEHSGNHSTHPVPSGK
notes: also called 3-3.2sp; not shown: C-terminal portion of M13 gene III protein, fused at codon position 198
- αvβ3 signal (integrin αVβ3 [1]): 0.791 OD
- αvβ5 signal (integrin αVβ5 [2]): 1.12 OD

B11: M13 phage pKK105 displaying MICA α3 domain with loop 3 insert 3.3sp (designed binder)
chain: TVPPMVNVTRSEASEGNITVTCRASGFYPWNITLSWRQDGVSLSHDTQQWGDVLPDGNGTYQTWVATRISGGSGGGSRVPRGDSDLTSGGSGGGCYMEHSGNHSTHPVPSGK
notes: also called 3-3.3sp; not shown: C-terminal portion of M13 gene III protein, fused at codon position 198
- αvβ3 signal (integrin αVβ3 [1]): 1.33 OD
- αvβ5 signal (integrin αVβ5 [2]): 1.11 OD

B12: M13 phage pKK101 displaying MICA α3 domain with loop 1 insert 3.3sp (designed binder)
chain: TVPPMVNVTSGGSGGGSRVPRGDSDLTSGGSGGGVTCRASGFYPWNITLSWRQDGVSLSHDTQQWGDVLPDGNGTYQTWVATRICQGEEQRFTCYMEHSGNHSTHPVPSGK
notes: also called 1-3.3sp; not shown: C-terminal portion of M13 gene III protein, fused at codon position 198
- αvβ3 signal (integrin αVβ3 [1]): 1.49 OD
- αvβ5 signal (integrin αVβ5 [2]): 1.23 OD

B13: M13 phage pKK92 displaying MICA α3 domain with loop 1 insert 3.1 (designed binder)
chain: TVPPMVNVTSRGDHPRTQVTCRASGFYPWNITLSWRQDGVSLSHDTQQWGDVLPDGNGTYQTWVATRICQGEEQRFTCYMEHSGNHSTHPVPSGK
notes: also called 1-3.1; not shown: C-terminal portion of M13 gene III protein, fused at codon position 198
- αvβ3 signal (integrin αVβ3 [1]): 0.858 OD
- αvβ5 signal (integrin αVβ5 [2]): 1.32 OD

B14: soluble MICA generated from pKK53 (tight loop 1 insert T-3.5) (designed binder)
chain: HHHHHHEPHSLRYNLTVLSWDGSVQSGFLTEVHLDGQPFLRCDRQKCRAKPQGQWAEDVLGNKTWDRETRDLTGNGKDLRMTLAHIKDQKEGLHSLQEIRVCEIHEDNSTRSSQHFYYDGELFLSQNLETEEWTMPQSSRAQTLAMNVRNFLKEDAMKTKTHYHAMHADCLQELRRYLKSGVVLRRTVPPMVNGSRGDSLIMHCRASGFYPWNITLSWRQDGVSLSHDTQQWGDVLPDGNGTYQTWVATRICQGEEQRFTCYMEHSGNHSTHPVPSGK
notes: From pSW324 (from pKK34: His6, Glu125); secreted by 293T cells; also called 1-T-3.5
- αvβ3 signal (integrin αVβ3 [3]): 0.659 OD
- αvβ3 signal/ng (integrin αVβ3 [3]): 18.7 signal/ng MICA
- αvβ5 signal (integrin αVβ5 [4]): 0.8 OD
- αvβ5 signal/ng (integrin αVβ5 [4]): 22.8 signal/ng MICA

B15: soluble MICA generated from pKK54 (tight loop 1 insert T-3.3) (designed binder)
chain: HHHHHHEPHSLRYNLTVLSWDGSVQSGFLTEVHLDGQPFLRCDRQKCRAKPQGQWAEDVLGNKTWDRETRDLTGNGKDLRMTLAHIKDQKEGLHSLQEIRVCEIHEDNSTRSSQHFYYDGELFLSQNLETEEWTMPQSSRAQTLAMNVRNFLKEDAMKTKTHYHAMHADCLQELRRYLKSGVVLRRTVPPMVNRVPRGDSDLTCRASGFYPWNITLSWRQDGVSLSHDTQQWGDVLPDGNGTYQTWVATRICQGEEQRFTCYMEHSGNHSTHPVPSGK
notes: From pSW324 (from pKK34: His6, Glu125); secreted by 293T cells; also called 1-T-3.3
- αvβ3 signal (integrin αVβ3 [3]): 0.177 OD
- αvβ3 signal/ng (integrin αVβ3 [3]): 19.5 signal/ng MICA
- αvβ5 signal (integrin αVβ5 [4]): 0.175 OD
- αvβ5 signal/ng (integrin αVβ5 [4]): 19.3 signal/ng MICA

B16: soluble MICA generated from pKK56 (tight loop 1 insert T-5.3) (designed binder)
chain: HHHHHHEPHSLRYNLTVLSWDGSVQSGFLTEVHLDGQPFLRCDRQKCRAKPQGQWAEDVLGNKTWDRETRDLTGNGKDLRMTLAHIKDQKEGLHSLQEIRVCEIHEDNSTRSSQHFYYDGELFLSQNLETEEWTMPQSSRAQTLAMNVRNFLKEDAMKTKTHYHAMHADCLQELRRYLKSGVVLRRTVPPMVNHLARGDDLTYCRASGFYPWNITLSWRQDGVSLSHDTQQWGDVLPDGNGTYQTWVATRICQGEEQRFTCYMEHSGNHSTHPVPSGK
notes: From pSW324 (from pKK34: His6, Glu125); secreted by 293T cells; also called 1-T-5.3
- αvβ3 signal (integrin αVβ3 [3]): 0.473 OD
- αvβ3 signal/ng (integrin αVβ3 [3]): 16.4 signal/ng MICA
- αvβ5 signal (integrin αVβ5 [4]): 0.528 OD
- αvβ5 signal/ng (integrin αVβ5 [4]): 18.3 signal/ng MICA

B17: soluble MICA generated from pKK55 (tight loop 1 insert T-5.1) (designed binder)
chain: HHHHHHEPHSLRYNLTVLSWDGSVQSGFLTEVHLDGQPFLRCDRQKCRAKPQGQWAEDVLGNKTWDRETRDLTGNGKDLRMTLAHIKDQKEGLHSLQEIRVCEIHEDNSTRSSQHFYYDGELFLSQNLETEEWTMPQSSRAQTLAMNVRNFLKEDAMKTKTHYHAMHADCLQELRRYLKSGVVLRRTVPPMVNVTRGDTFTQSCRASGFYPWNITLSWRQDGVSLSHDTQQWGDVLPDGNGTYQTWVATRICQGEEQRFTCYMEHSGNHSTHPVPSGK
notes: From pSW324 (from pKK34: His6, Glu125); secreted by 293T cells; also called 1-T-5.1
- αvβ3 signal (integrin αVβ3 [3]): 0.475 OD
- αvβ3 signal/ng (integrin αVβ3 [3]): 14 signal/ng MICA
- αvβ5 signal (integrin αVβ5 [4]): 0.588 OD
- αvβ5 signal/ng (integrin αVβ5 [4]): 17.4 signal/ng MICA
